In US20190144550A1 (Pfizer, published 2019):
Numbering of substitutions follows the chain as printed.

B1: 20B9 (antibody, V domains shown)
VH: QVTLKESGPVLVKPTETLTLTCTVSGFSLSNARMGVSWIRQPPGKALEWLGHIFSTDEKSYSTSLRGRITISKDTSRGLVVLTLTNMDPVDTATYYCARDSSNYEGYFDFWGPGFLVTVSS
VL: EIVMTQSPATLSVSPGERATLSCRVSQSIGANLAWYQQKFGQAPRLLIYGASTRATGIPVRFSGGGSGTEFTLTISSLQSEDFAIYSCQQYIYWPFTFGPGTTVDIK
notes: Hybridoma supernatant (AlivaMab mouse); captured/detected via mouse Fc
B2: 12B2 (antibody, V domains shown)
VH: QVTLKESGPVLVKPTETLTLTCTVSGFSLSNPRMGVSWIRQPPGKALEWLGHIFSSDEKSYRLSLRSRLSISKDTSKSQVVLTMTNMDPVDTATYYCVRDSSNYGGYFDYWGQGTLVTVSS
VL: EVVMTQSPATLSVSPGERATLSCRASQSVINNLAWYQQKPGQAPRLLIYGTSTRATDIPARFSGSGSGTEFTLTISSLQSEDFAVYYCQDYNNWPFTFGPGTKVDIK
notes: as for B1
B3: 11F10 (antibody, V domains shown)
VH: B2 VH with T15I, S25C, S64F, V98A, N103D, G105E
VL: EIVMTQSPATLSVSPGERTTLSCRASQSVGSNLAWYQQKPGQAPRLLIYGASTRASGVPARFSGSGSGTEFTLTISSLQSEDFAVYSCQEYNNWPFTFGQGTKVEIK
notes: as for B1
B4: 42G9 (antibody, V domains shown)
VH: QVTLKESGPVLLKPTETLTLTCTVSGFSLSNPRMGVSWIRQPPGKALEWFAHIFSTDEKSLKLSLRSRLTLSKDTSKSQVVLTMTNMAPVDSATYYCARDSSNYEGYFDFWGQGTLVTVSS
VL: EVVLTQSPATLSVSPGERATLSCRASQSVRSNLAWYQQKSGQAPRLLIYGSTIRATGVPARFSGSGSGTEFTLTISSLQSEDFAVYYCQQYSDWPFTFGPGTKVDIK
notes: Hybridoma supernatant (AlivaMab mouse); captured/detected via mouse Fc; also called mAb 42G9
B5: 19A9 (antibody, V domains shown)
VH: B4 VH with K5E, L12V, P32A, L47P, K62R, A88D, S92T, F110Y
VL: EVVMTQSPATLSVSPGERATLSCRASQSVNRNLAWYQQKPGQAPRLLIFGTSTRATGIPARFSGSGSGTEFTLTIDSLQSEHSGLYYCQQYNDWPFTFGPGTKVDIK
notes: as for B1
B6: 14C11 (antibody, V domains shown)
VH: B4 VH with L12V, S30N, P32A, L61F, K62R, L63T, A88D, S92T, F110Y, T115I
VL: EIVMTQSPATLSVSPGERATLSCRASQSVSNNLAWYQQKPGQAPRLLIYGASTRATGVPARFSGSDSGTEFSLTISSLQSEDFAVYFCQQYKDWPFTFGPGTKVEIK
notes: as for B1
B7: 49B11 (antibody, V domains shown)
VH: B4 VH with L12V, P32V, T56S, L61I, K62R, L63R, A88D, S92T, F110Y
VL: EMEVTQSPATLSVSPGERATLSCRASQNIGSDLAWYQQQSGQAPRLLISGASTRATGVPTRFSGSGSGTDFTLTITSLQSEDFAVYYCQQYNDWPFTFGPGTKVDIK
notes: as for B1
B8: 12H6 (antibody, V domains shown)
VH: B4 VH with L12V, P32A, F50L, L61I, K62R, L63R, A88D, S92T, F110Y
VL: EVVMTQSPATLSVSPGERATLSCRASQGVSSNFAWYQQRPGQSPRLLLYGASTRATGVPGRFSGSGSGTENILTISSLQSEDFAIYFCQQYKDWPFTFGPGSKVDIK
notes: as for B1
B9: 21E11 (antibody, V domains shown)
VH: B4 VH with L12V, P32V, T56S, L61I, K62R, L63R, A88D, S92T
VL: B7 VL with E1D, E3V, N28S, I29V, Q39P, S40P, A43S, S49Y, T60A, Q79E
notes: as for B1
B10: 32A10 (antibody, V domains shown)
VH: B4 VH with L12V, P32A, F50L, L61I, K62R, L63R, A88D, S92T, Y96F, F110Y
VL: B8 VL with A19V, G28S, S43A, S52T, V58L
notes: as for B1
B11: 46E10 (antibody, V domains shown)
VH: B4 VH with L12V, P32A, F50L, L61I, K62R, L63R, T83I, A88D, S92T, F110Y
VL: B8 VL with A9P, T10N, G28S, S30T, I85V
notes: as for B1
B12: 11B11 (antibody, V domains shown)
VH: B2 VH with P32A, R33K, G51A, S56T, Y61I, L63R, S70T, I71M, G105E
VL: B8 VL with V3L, G28S, S31T, S43A, Y49F, V58I, D105E
notes: as for B1
B13: 21E7 (antibody, V domains shown)
VH: B4 VH with K5E, L12V, P32A, L47P, K62R, A88D, S92T, F110Y
VL: B5 VL with E1D, M4L, R31S, K39N, T51S, R61S, D76N, G84A, L85V
notes: as for B1
B14: 29D5 (antibody, V domains shown)
VH: QVTLKESGPVLVKPTETLTLTCTVSGFSLSNPRMGVSWLRQPPGKALEWFAHIFSTDEKSYSPSLRGRLTVSKDTSKSQVVLTLTNMDPVDTATYYCARDSSNYEGYFDYWGQGTLVTVSS
VL: KIVMTQSPATLSVSPGERATLSCRANQIVSSNLAWYQQKPGQAPRLLVFGTSTRATGIPIRFSGSGSGTEFTLTVSSLQSEDFAVYVCQQYNDWPFTFGPGTKVDIK
notes: as for B1

The binders below were run against T1, 8-histidine tagged recombinant wild-type protein EGFRwt (UniProt P00533 25-645, limits assumed) (assay: SPR, captured by anti-mouse Fc).
T1 construct: not shown: 8-histidine tag

Row | binding result | Binder
1 | no binding (tested: 1000 nM) | B1
2 | no binding (tested: 1000 nM) | B2
3 | no binding (tested: 1000 nM) | B3
4 | no binding (tested: 1000 nM) | B4
5 | no binding (tested: 1000 nM) | B5
6 | no binding (tested: 1000 nM) | B6
7 | no binding (tested: 1000 nM) | B7
8 | no binding (tested: 1000 nM) | B8
9 | no binding (tested: 1000 nM) | B9
10 | no binding (tested: 1000 nM) | B10
11 | no binding (tested: 1000 nM) | B11
12 | no binding (tested: 1000 nM) | B12
13 | no binding (tested: 1000 nM) | B13
14 | no binding (tested: 1000 nM) | B14

These binders were tested against T2, Monomeric 8-histidine tagged human EGFRvIII extracellular domain (human, UniProt P00533 298-645) (assay: SPR, captured by anti-mouse Fc, 37 C).
T2 construct: Analyte in all SPR assays; not shown: 8-histidine tag
Description: To generate human antibodies against EGFRvIII, transgenic AlivaMab mice (Ablexis LLC, San Francisco, Calif.) were immunized with alternating schedule of paraformaldehyde-fixed rat glioblastoma cell line expressing EGFRvIII, F98-npEGFRvIII (American Type Culture Collection, Manassas, Va.) and peptides (SEQ ID NO: 227: […]) directed to the junction region in EGFRvIII. Hybridomas were generated using standard techniques. To determine the binding affinity and specificity of these hybridomas to EGFRvIII, antibodies in culture supernatants were captured by anti-mouse Fc using Biacore™ T200 biosensor equipped with anti-mouse Fc coupled CM4 sensor chips (Biacore™ AB, Uppsala, Sweden—now GE Healthcare). Monomeric 8-histidine tagged human EGFRvIII extracellular domain was then injected as the analyte at 10-fold dilution series starting with top concentration 1000 nM. Affinity of anti-EGFRvIII antibodies towards human EGFRvIII was measured at 37° C.

Row | Kd | koff | kon | Binder
15 | 32.1 nM | 0.0015 s⁻¹ | 46700 M⁻¹ s⁻¹ | B1
16 | 24.3 nM | 0.00179 s⁻¹ | 73800 M⁻¹ s⁻¹ | B2
17 | 42.4 nM | 0.00281 s⁻¹ | 66300 M⁻¹ s⁻¹ | B3
18 | 8.2 nM | 0.000563 s⁻¹ | 68800 M⁻¹ s⁻¹ | B4
19 | 18.6 nM | 0.00104 s⁻¹ | 55800 M⁻¹ s⁻¹ | B5
20 | 78.5 nM | 0.00593 s⁻¹ | 75500 M⁻¹ s⁻¹ | B6
21 | 9.1 nM | 0.000695 s⁻¹ | 76400 M⁻¹ s⁻¹ | B7
22 | 12.4 nM | 0.000733 s⁻¹ | 59300 M⁻¹ s⁻¹ | B8
23 | 9.5 nM | 0.000632 s⁻¹ | 66600 M⁻¹ s⁻¹ | B9
24 | 9.6 nM | 0.000626 s⁻¹ | 65400 M⁻¹ s⁻¹ | B10
25 | 12 nM | 0.000716 s⁻¹ | 59700 M⁻¹ s⁻¹ | B11
26 | 21.7 nM | 0.00113 s⁻¹ | 52100 M⁻¹ s⁻¹ | B12
27 | 19.9 nM | 0.0013 s⁻¹ | 65200 M⁻¹ s⁻¹ | B13
28 | 41.6 nM | 0.00424 s⁻¹ | 102000 M⁻¹ s⁻¹ | B14

Each binder was assayed against T3, human EGFRvIII expressed on cells (human, UniProt P00533 298-1210) (assay: flow cytometry, F98-npEGFRvIII against F98, F98-EGFRwt and A431 cells).
T3 construct: the F98-npEGFRvIII line was obtained from ATCC and its construct is not described; also called F98-npEGFRvIII; F98-EGFRvIII

Row | fold MFI on EGFRvIII expressing cell line over non-expressing cell lines | Binder
29 | ≥ 10 fold | B1
30 | ≥ 10 fold | B2
31 | ≥ 10 fold | B3
32 | ≥ 10 fold | B4
33 | ≥ 10 fold | B5
34 | ≥ 10 fold | B6
35 | ≥ 10 fold | B7
36 | ≥ 10 fold | B8
37 | ≥ 10 fold | B9
38 | ≥ 10 fold | B10
39 | ≥ 10 fold | B11
40 | ≥ 10 fold | B12
41 | ≥ 10 fold | B13
42 | ≥ 10 fold | B14

These binders were tested against T3, human EGFRvIII expressed on cells (assay: flow cytometry, F98-npEGFRvIII cells).

Row | % positive | MFI | Binder
43 | 98.3% | 3420 | B1
44 | 97.9% | 2750 | B2
45 | 98% | 3280 | B3
46 | 98.5% | 3250 | B4
47 | 98.1% | 3100 | B5
48 | 98.2% | 3210 | B6
49 | 98.5% | 2980 | B7
50 | 98.3% | 3440 | B8
51 | 98.5% | 3100 | B9
52 | 98.3% | 3350 | B10
53 | 98.7% | 2990 | B11
54 | 98.2% | 3390 | B12
55 | 98.5% | 3100 | B13
56 | 97.9% | 2830 | B14
